Test results as given in IntAct's records for PubMed 17675380.

B1: Enterobactin synthase component B (Escherichia coli (strain K12)), P0ADI4 (parent)
chain: MAIPKLQAYALPESHDIPQNKVDWAFEPQRAALLIHDMQDYFVSFWGENCPMMEQVIANIAALRDYCKQHNIPVYYTAQPKEQSDEDRALLNDMWGPGLTRSPEQQKVVDRLTPDADDTVLVKWRYSAFHRSPLEQMLKESGRNQLIITGVYAHIGCMTTATDAFMRDIKPFMVADALADFSRDEHLMSLKYVAGRSGRVVMTEELLPAPIPASKAALREVILPLLDESDEPFDDDNLIDYGLDSVRMMALAARWRKVHGDIDFVMLAKNPTIDAWWKLLSREVK
partner: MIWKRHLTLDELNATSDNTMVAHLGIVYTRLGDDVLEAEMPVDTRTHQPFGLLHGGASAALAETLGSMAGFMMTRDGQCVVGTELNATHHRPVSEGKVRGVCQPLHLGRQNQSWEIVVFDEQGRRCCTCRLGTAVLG

Variants of: B1
Details: with enth_ecoli entH

effect of a mutation on the interaction	Variant
decreasing interaction strength	S245A
